Values of other authors as cited in PMC4773801.

Target: bee venom group III sPLA2 (Apis mellifera) (UniProt P00630)
UniProt P00630, sequence (P00630 34-167): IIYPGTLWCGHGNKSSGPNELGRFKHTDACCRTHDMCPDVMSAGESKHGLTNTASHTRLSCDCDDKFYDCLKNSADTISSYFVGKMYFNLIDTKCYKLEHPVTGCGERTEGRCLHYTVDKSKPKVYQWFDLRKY

In the case of “mannose receptor CD206 (from UniProt P22897)”, the Kd is listed as 4.79 µM.
